First the molecules themselves.
B1: 2B9 (antibody, V domains shown)
VH: EVQLLESGGGLAQPGKSLRLSCAASGFTFSGFAMSWVRQAPGKGLEWVSGISGSGDITYYADSVKGRFTISRDNSKSTLYLQMNSLGAEDTAVYYCAKDPYNWNHGVYGMDVWGQGTTVTVSS
VL: DIQMTQSPSSLSASVGDRVTITCRASQSISSYLNWYQQKPGKAPKFLIYGASSLQSGVPSRFSGSGSGTDFTLTISSLQPEDFAAYYCQQSFNAPLTFGGGTKVEIK
B2: 9G9 (antibody, V domains shown)
VH: EVQLLESGGGLVQPGGSLRLSCAASGFTFHNYAMSWVRQAPGKGLEWVSGISGSGGTAYYADSVKGRFTISRDNSKNTLYLQMNSLRADDTALYYCAKDRFLEWVEGFDSWGQGTLVTVSS
VL: B1 VL with S30G, Y32F, N34I, F46L, G50A, T74I, A85T, F92Y, A94T
B3: 15C10 (antibody, V domains shown)
VH: EVQLLESGGGLVQPGGSLRLSCAASGFTFSSFAMSWVRQAPGKGLEWVSGISASGGTTNYADSVKGRFTISRDNSKNTLYLQMSSLRAEDTAEYYCAKDRFLEWVEGFDPWGQGILVTVSP
VL: DIQMTQSPSSLSASVGDRVTITCRASQSIGRFLIWYQQKPGKAPKLLLYATSSLQSGVPARFTGSGSGTDFTLTIGSLQPEDFATYYCQQSYITPLTFGGGTKVEIK
B4: 6H12 (antibody, V domains shown)
VH: EVQLVESGGGLVQPGGSLRLSCAASGFTFSSYEMNWVRQAPGKGLEWVSYISSGGSSIKYADSVRGRFAFSRDNAENSVHLQMNSLRAEDTAVYYCARVGGSYYYSYAMDVWGQGTAVTVSS
VL: DIQLTQSPSFLSASVGDRVTITCWASQDISSYLAWYQQKPGKAPKLLIYAASTLQSGVPSRFTGSGSGTEFTLTISSLQPEDFATYYCQQPHNSPFSFGPGTKVDVK
B5: 7A4 (antibody, V domains shown)
VH: QVQLVESGGDLVKPGGSLRLSCVASGFTFSDYYMNWIRLPPGKGLEWISYIDSSAGAIYYADSVKGRFTVSRDDAKNSLFLHMNSLRADDTAVYYCVRERRDGHKIFDYWGPGTLVTVSS
VL: DIVMTQSPDSLAVSLGERATINCKSSQNILYSSNNKNYLAWYQQKAGQPPKLLIFWSSIRESGVPDRFSGSGSGTDFTLTISSLQAEDVAVYYCQQYYSSPYNFGRGTTLEIK
B6: 9B4 (antibody, V domains shown)
VH: B5 VH with V97A, D102E, Y109F
VL: B5 VL with V13L, W41C, I59T
B7: 5A8 (antibody, V domains shown)
VH: B5 VH with K43R, N77K, H82Y, V97A
VL: B5 VL with I59T, Q95H
B8: 8A11 (antibody, V domains shown)
VH: B5 VH with I58T, D89E, V97A, D102S, Y109C
VL: B5 VL with I59T
B9: 2F7 (antibody, V domains shown)
VH: B5 VH with D10G, K43R, E46Q, F80Y, H82Q, V97A, Y109W, P112Q
VL: B5 VL with S32T, A40G, F55Y, I59T, E61N, Q95H, N103T, R106Q, T109N
B10: 4F7 (antibody, V domains shown)
VH: B5 VH with S85N, V97A, Y109C
VL: B5 VL with I59T
B11: 8D10 (antibody, V domains shown)
VH: B5 VH with Q3H, L79M, V97A
VL: B5 VL with I59T
B12: 1H10 (antibody, V domains shown)
VH: B5 VH with Q3H, L39M, S85N, V97A, Y109C
VL: B5 VL with I59T
B13: 1E2 (antibody, V domains shown)
VH: B5 VH with I48V, K65R, V97A, Y109C
VL: B5 VL with I59T, S82N
B14: 2H1 (antibody, V domains shown)
VH: B5 VH with V97A, Y109C
VL: B5 VL with A46T, I59T
B15: 14F5 (antibody, V domains shown)
VH: B3 VH with A24V
VL: B3 VL
B16: 11D12 (antibody, V domains shown)
VH: B4 VH with A69T, H80F, A88G
VL: B4 VL with T63S, H92N, S94Y
B17: 7H8 (antibody, V domains shown)
VH: EVQLLESGGGLVQPGGSLRLSCAASGFAFHTYDMTWVRQAPGKGLEWVSGVVGSGINTYYADSVKGRFTISRDNSKSTLYLQMNSLRAEDTAVYYCAKDSSSWFSLHYWGQGTLVTVSS
VL: DIQMTQSPSTLSASVGDRVTITCRASQSISNWLAWYQQKPGKAPKLLIYKASSLESGVPSRFSGSGSGTDFTLTISSLQPDDFASYYCQQYRSYAYTFGQGTKLEIT

Where a chain is given by its changes, count along the chain named. Several values for one entry are separate records, joined by “and”; a condition that tells them apart may be missing. Equal entries are not always repeated.

Our source for the EC50, pseudovirus neutralization and EC50, pseudovirus neutralization (mAb mixed with irrelevant isotype matched mAb M2) values is patent publication US20250304658A1.

In one test the target is BK virus VP1 protein, genotype I (BK virus) (UniProt P03088). The experiment in a line: cell-based or functional assay.
B1 gave an EC50, pseudovirus neutralization of 4.2 pM.
B2 had an EC50, pseudovirus neutralization (mAb mixed with irrelevant isotype matched mAb M2) of 2.76 pM.
B3 came in with an EC50, pseudovirus neutralization of 0.1 pM.
For B4, the EC50, pseudovirus neutralization (mAb mixed with irrelevant isotype matched mAb M2) is 0.96 pM.

For a further test the target is unchanged. The experiment in a line: cell-based or functional assay. This is another data set of the same source.
For B5, the EC50, pseudovirus neutralization is 9.1 pM.
In turn, B6 yielded an EC50, pseudovirus neutralization of 72.5 pM.
The same measure, in the same setting: as for B7, the figure is 20.1 pM.
Molecule B8 had an EC50, pseudovirus neutralization of 108 pM.
With B9, the EC50, pseudovirus neutralization turned out to be 52.5 pM.
The same measure, in the same setting: as for B10, the figure is 32.5 pM; as for B11, 62.9 pM.
The same measure, in the same setting: as for B12, the figure is 68.4 pM; as for B13, 59 pM; as for B14, 20.2 pM and 41.8 pM.
With B1, the EC50, pseudovirus neutralization stood at 32.2 pM and the EC50, pseudovirus neutralization (mAb mixed with irrelevant isotype matched mAb M2) was 2.77 pM.
B2: the EC50, pseudovirus neutralization was 4.7 pM.
The same measure, in the same setting: as for B3, the figure is 9.4 pM; as for B15, 10.1 pM.
Same read-out and setting: as for B4, the figure is 3.9 pM; as for B16, 10.9 pM; as for B17, 59.6 pM.
